# In paper PMC4023160:
# Columns and labels:
# [1] = target: BAP (ClpB with the ClpA tripeptide for ClpP binding), wild type (E. coli | not stated); test: negative-stain EM single-particle reconstruction; BAP(HAP)-ClpP complexes formed in 20 mM Tris-HCl pH 7.5, 20 mM KCl, 15 mM MgCl2, 1 mM DTT, 2 mM ATPγS; stained with 2% uranyl acetate; side views of 2:2 complexes cut into 1:1 halves; sixfold symmetry imposed or none
# ClpP protease [2] = target: ClpP protease (UniProt P0A6G7); test: as above
# ClpP protease [3] = target: ClpP protease (UniProt P0A6G7); test: HDX-MS; BAP (100 pmol) with ClpP (200 pmol), 3 min at 30°C in low salt buffer A (50 mM Tris pH 7.5, 25 mM KCl, 20 mM MgCl2, 2 mM DTT) with ATPγS, diluted 20-fold into D2O buffer, 60 s exchange; mass of full length BAP
# [4] = target: BAP Trap (E279A/E678A) variant (E. coli | not stated); test: cryo-EM structure; BAPtrap-ClpP and ClpB alone, vitrified, in the presence of ATPγS; side views only
# [5] = target: BAP-E432A (repressed mutant) (E. coli | not stated); test: negative-stain EM single-particle reconstruction; BAP(HAP)-ClpP complexes formed in 20 mM Tris-HCl pH 7.5, 20 mM KCl, 15 mM MgCl2, 1 mM DTT, 2 mM ATPγS; stained with 2% uranyl acetate; side views of 2:2 complexes cut into 1:1 halves; sixfold symmetry imposed or none
# [6] = target: HAP (Hsp104 with the ClpA tripeptide for ClpP binding) (S. cerevisiae); test: as above
# Sequence of ClpP protease (P0A6G7 15-207): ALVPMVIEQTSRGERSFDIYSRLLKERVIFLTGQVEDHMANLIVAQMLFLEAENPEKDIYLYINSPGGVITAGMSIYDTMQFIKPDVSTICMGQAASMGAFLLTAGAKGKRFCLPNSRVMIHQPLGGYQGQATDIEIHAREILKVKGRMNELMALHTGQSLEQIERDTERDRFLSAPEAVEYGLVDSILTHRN
substance,measurement,setting,value
"BAP (ClpB with the ClpA tripeptide for ClpP binding), wild type",stoichiometry N,[1],6
same,stoichiometry N (BAP hexamers per ClpP double-heptamer),ClpP protease [2],2
same,amide protons in BAP protected from exchange by ClpP (amide protons),ClpP protease [3],30
BAP Trap (E279A/E678A) variant,stoichiometry N,[4],6
BAP-E432A (repressed mutant),stoichiometry N,[5],6
HAP (Hsp104 with the ClpA tripeptide for ClpP binding),stoichiometry N,[6],6
